Experimental data as given in patent publication US20120321614A1 (Amgen, published 2012).
Positions count from the first letter of the chain named. Names may count otherwise. Blank lines part the entries; values can stand above or below the binder they belong to.

Legend:
[1] = target: T1, c-Met ECD/Fc (R&D Systems #358 MT), human (human, UniProt P08581 25-932); test: SPR (BIACORE 3000), human c-Met ECD-Fc immobilized, antibody injected
T1 construct: extracellular domain; Bought fusion protein; also called c-Met ECD-Fc (human); human Met ECD-Fc; not shown: Fc part of the bought fusion protein
T1 sequence (P08581 25-932): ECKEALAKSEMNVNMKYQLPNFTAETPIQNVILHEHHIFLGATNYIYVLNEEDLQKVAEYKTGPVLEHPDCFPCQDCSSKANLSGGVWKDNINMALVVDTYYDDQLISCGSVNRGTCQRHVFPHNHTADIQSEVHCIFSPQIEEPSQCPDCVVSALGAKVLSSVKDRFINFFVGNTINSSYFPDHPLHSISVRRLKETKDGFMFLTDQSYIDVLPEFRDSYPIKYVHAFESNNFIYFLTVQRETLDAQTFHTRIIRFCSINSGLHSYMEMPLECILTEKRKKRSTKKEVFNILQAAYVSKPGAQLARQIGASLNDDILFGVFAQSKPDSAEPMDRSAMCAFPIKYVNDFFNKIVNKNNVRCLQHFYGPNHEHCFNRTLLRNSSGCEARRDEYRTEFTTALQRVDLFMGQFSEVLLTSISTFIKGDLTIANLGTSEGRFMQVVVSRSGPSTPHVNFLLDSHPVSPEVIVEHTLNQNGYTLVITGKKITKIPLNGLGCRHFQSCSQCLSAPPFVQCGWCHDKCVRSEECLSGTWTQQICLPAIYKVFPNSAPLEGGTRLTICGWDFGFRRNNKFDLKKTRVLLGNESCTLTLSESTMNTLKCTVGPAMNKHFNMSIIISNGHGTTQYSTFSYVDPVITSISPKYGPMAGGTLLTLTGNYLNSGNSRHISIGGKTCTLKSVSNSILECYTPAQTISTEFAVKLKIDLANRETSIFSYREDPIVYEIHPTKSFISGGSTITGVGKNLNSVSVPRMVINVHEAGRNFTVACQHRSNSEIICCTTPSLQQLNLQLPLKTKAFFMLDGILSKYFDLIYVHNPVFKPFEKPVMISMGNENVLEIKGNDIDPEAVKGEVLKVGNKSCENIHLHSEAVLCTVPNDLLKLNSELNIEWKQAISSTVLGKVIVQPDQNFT

[2] = target: T2, c-Met expressed on the surface of human A549 lung carcinoma cells (human, UniProt P08581 25-1390); test: cell-based or functional assay
T2 sequence (P08581 25-1390): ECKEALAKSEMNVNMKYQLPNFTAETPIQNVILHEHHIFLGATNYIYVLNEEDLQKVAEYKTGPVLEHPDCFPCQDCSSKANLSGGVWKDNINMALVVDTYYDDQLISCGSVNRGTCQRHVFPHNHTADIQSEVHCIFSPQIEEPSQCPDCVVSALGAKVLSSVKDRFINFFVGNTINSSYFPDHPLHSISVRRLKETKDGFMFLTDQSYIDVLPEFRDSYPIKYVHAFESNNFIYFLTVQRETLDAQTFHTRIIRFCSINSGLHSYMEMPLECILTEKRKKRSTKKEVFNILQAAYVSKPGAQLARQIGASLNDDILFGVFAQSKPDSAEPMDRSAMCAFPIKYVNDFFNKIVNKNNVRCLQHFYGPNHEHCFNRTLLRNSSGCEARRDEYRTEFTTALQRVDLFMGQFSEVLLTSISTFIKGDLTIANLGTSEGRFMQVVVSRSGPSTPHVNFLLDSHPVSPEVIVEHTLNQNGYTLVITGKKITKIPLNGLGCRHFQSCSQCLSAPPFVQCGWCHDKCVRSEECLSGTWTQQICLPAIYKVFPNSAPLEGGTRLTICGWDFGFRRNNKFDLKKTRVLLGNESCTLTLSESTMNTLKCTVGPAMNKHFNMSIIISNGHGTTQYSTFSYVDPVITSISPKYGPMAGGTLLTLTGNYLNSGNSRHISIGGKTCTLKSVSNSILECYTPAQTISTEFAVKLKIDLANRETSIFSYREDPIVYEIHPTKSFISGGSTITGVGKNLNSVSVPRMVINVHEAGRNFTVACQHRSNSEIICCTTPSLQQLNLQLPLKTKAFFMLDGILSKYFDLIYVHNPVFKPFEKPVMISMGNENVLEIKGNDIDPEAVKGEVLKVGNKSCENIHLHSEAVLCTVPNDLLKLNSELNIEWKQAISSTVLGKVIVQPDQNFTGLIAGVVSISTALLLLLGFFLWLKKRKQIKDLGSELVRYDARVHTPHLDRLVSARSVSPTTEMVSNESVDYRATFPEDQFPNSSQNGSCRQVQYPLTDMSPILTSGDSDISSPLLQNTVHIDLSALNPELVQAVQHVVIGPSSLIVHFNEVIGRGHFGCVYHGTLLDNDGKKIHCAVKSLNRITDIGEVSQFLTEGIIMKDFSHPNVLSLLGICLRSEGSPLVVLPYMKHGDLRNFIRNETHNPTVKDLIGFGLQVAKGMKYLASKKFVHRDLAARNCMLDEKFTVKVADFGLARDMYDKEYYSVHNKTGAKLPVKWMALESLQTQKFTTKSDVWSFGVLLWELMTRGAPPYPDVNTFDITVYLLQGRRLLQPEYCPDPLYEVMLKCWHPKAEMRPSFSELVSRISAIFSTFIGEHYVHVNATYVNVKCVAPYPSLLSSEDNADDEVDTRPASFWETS

[3] = target: T2, c-Met expressed on the surface of human …; test: flow cytometry on human A549 cells, half-maximal binding at equilibrium
Experimental: (§1) The binding affinity of purified antibodies for c-Met expressed on the surface of human A549 lung carcinoma cells and cynomolgus kidney cells was determined by flow cytometry using the BD™ Biosciences LSR flow cytometer according to manufacturer's protocols.
(§2) Cells grown in culture were washed with PBS, briefly incubated in the presence of 0.25% trypsin-EDTA (Invitrogen) and collected. The collected cells were washed in PBS wash buffer containing 0.025% sodium azide and 2% heat inactivated serum, pelleted and 5×10⁵ cells and resuspended in 500 μl of the same buffer. The time required to achieve equilibrium binding at room temperature for each antibody was determined independently to be between six and eight hours by incubating subsaturating concentrations of each antibody with cells. […] Each antibody was incubated with detached cells for 6 to 8 hours at room temperature depending on the time required to reach equilibrium. Cells were washed, resuspended and incubated in 500 μl of a 1:500 dilution of biotinylated mouse anti-human IgG (Jackson Labs) in PBS wash buffer for 45 minutes on ice. Next, cells were washed, resuspended and incubated with 10 μg/ml streptavidin R-phycoerythrin conjugate (Caltag) in 200 μl PBS wash buffer for 15 min on ice protected from light. Cells were washed and signal was detected with a BD Biosciences LSR flow cytometer according to manufacturer's protocols.

[4] = target: T3, c-Met expressed on the surface of cynomolgus kidney cells (cynomolgus, UniProt A0A2K5UM36 25-1381); test: flow cytometry on cynomolgus kidney cells, half-maximal binding at equilibrium
T3 construct: also called cynomologus c-Met expressed on the cell surface
T3 sequence (A0A2K5UM36 entry or part of it limits assumed): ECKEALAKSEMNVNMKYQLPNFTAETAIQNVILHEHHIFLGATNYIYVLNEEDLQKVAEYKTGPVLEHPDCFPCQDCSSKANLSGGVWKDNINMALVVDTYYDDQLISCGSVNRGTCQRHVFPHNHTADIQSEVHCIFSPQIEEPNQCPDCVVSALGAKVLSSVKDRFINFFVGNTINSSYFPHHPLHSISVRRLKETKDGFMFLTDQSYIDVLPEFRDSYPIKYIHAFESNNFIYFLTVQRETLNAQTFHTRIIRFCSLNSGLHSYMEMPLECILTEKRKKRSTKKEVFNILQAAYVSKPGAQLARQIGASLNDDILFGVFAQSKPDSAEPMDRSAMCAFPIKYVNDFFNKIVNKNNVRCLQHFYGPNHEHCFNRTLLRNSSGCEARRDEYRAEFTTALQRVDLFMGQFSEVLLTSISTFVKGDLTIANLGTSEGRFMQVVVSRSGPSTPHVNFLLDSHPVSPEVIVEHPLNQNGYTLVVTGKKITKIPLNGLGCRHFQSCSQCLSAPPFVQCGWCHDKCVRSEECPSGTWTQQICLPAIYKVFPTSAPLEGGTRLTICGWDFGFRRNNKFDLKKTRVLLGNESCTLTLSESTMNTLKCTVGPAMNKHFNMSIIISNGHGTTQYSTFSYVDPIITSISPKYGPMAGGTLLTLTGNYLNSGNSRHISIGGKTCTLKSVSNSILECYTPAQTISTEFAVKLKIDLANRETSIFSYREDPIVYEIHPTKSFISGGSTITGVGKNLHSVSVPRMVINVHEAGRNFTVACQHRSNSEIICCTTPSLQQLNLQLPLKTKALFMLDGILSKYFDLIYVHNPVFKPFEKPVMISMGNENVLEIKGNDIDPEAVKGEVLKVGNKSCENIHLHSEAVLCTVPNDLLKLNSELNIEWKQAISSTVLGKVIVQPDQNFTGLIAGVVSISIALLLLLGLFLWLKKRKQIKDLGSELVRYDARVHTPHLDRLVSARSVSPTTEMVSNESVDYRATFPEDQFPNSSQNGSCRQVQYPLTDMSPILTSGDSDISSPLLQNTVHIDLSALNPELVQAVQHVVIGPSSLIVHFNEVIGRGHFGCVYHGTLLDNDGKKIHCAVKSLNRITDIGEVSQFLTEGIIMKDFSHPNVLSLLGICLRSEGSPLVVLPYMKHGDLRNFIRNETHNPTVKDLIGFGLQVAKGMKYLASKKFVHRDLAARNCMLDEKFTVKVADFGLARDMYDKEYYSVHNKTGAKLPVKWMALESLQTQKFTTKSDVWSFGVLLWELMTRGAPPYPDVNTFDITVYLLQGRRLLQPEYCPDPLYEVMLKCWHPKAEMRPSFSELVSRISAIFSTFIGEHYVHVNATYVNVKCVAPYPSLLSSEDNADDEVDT
Experimental: as §1, §2

[5] = target: T1, c-Met ECD/Fc (R&D Systems #358 MT), …; test: SPR (BIACORE 3000), human c-Met ECD-Fc immobilized, antibody injected, 1:1 model
Experimental: (§3) Experiments were performed in a BIACORE™ 3000 instrument at 25° C. in Dulbecco's phosphate buffered saline containing 0.0005% Tween-20. Protein concentrations were obtained from sedimentation velocity experiments or by measuring the wavelength of the sample at 280 nm using theoretical extinction coefficients derived from amino acid sequences. For experiments measuring the binding of antibody to immobilized antigens, 220 RU (resonance units) of c-Met ECD-Fc (human or cynomologus) was immobilized on a B1 chip (BIACORE™) by standard direct amine coupling procedures. […] For each concentration, samples were injected in duplicate at 5 μl/min flow for 4 min. The dissociation was monitored for 2000 seconds. The data were fit globally to a simple 1:1 binding model using BIACORE™ Biavel software. In addition, to determine the koff independent of any potential error in the active concentration or fitting model, the dissociation data were fit globally and independently from association data to a simple dissociation model.

[6] = target: T4, c-Met ECD-Fc (cynomologus) (cynomologus, UniProt A0A2K5UM36 25-932); test: SPR (BIACORE 3000), cynomologus c-Met ECD-Fc immobilized, antibody injected
T4 construct: also called cynomologus c-Met ECD-Fc
T4 sequence (A0A2K5UM36 entry or part of it limits assumed): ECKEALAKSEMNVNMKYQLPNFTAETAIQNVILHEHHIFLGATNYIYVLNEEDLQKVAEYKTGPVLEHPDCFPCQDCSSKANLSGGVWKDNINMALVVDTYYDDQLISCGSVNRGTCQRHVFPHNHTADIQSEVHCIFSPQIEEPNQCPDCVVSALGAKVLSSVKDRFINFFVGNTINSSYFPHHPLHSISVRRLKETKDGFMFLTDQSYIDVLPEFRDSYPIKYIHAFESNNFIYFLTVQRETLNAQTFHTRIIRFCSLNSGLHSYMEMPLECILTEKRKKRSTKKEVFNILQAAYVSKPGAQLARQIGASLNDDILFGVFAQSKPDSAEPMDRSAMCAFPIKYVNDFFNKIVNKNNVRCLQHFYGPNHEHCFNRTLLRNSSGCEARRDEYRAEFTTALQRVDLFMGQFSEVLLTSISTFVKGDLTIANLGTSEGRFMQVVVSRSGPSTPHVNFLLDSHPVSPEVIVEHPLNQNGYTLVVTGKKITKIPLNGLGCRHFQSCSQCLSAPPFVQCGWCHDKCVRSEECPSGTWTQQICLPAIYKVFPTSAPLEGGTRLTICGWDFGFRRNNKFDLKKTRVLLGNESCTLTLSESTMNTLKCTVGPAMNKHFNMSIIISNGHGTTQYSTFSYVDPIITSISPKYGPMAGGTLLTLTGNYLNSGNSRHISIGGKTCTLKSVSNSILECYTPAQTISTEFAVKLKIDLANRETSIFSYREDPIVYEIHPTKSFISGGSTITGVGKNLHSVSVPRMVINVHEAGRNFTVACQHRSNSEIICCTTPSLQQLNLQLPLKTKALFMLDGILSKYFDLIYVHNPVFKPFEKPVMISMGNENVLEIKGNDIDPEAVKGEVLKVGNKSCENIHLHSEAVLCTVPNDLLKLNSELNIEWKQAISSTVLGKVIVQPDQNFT
Experimental: as §3

[7] = target: T4, c-Met ECD-Fc (cynomologus); test: SPR (BIACORE 3000), cynomologus c-Met ECD-Fc immobilized, antibody injected, 1:1 model
Experimental: as §3

[8] = target: T1, c-Met ECD/Fc (R&D Systems #358 MT), …; test: ELISA, inhibition of HGF binding to plate-coated c-Met ECD/Fc
Experimental: The wells were washed four times with Tris-buffered saline (pH=8.0) with 0.05% TWEEN-20 (TBS-T). Next, 200 μl/well of blocking buffer (3% bovine serum albumin (BSA) in TBS-T) was added for 60 minutes (min) at room temperature to block non-specific binding sites. The wells were washed 4 times with 300 μl/well TBS-T. Next, 100 μl of Dulbecco's Modified Eagle medium (DMEM) supplemented with 10% FBS containing anti-c-Met antibodies from hybridoma supernatants or purified antibodies in either PBS or 20 mM sodium acetate (pH=5.5), 140 mM NaCl at various concentrations (e.g., 10, 3, 1, 0.3, 0.1, 0.03, and 0.01 μg/ml, based on human IgG2 concentrations in the supernatants) was added to each well. Anti-c-Met antibody was not added to the control wells of the experiment. The samples were mixed for 4 hours (hrs) at room temperature. […] The samples were mixed for 15 minutes at room temperature. […] The solutions were incubated in the wells for 30 min at room temperature. […] The samples were incubated for 30 min at room temperature. The wells were washed 5 times with TBS-T, about 300 μl/well/wash. Next, 100 μl/well of 3,3′,5,5′-tetramethylbenzidine (TMB) peroxidase substrate (Kirkegaard & Perry Laboratories) was added and developed for 1-2 min at room temperature. To stop the reaction, 100 μl/well of TMB stop solution (Kirkegaard & Perry Laboratories, #50-85-04) was added. The samples were read at a wavelength of 450 nanometers (nm) on a 96-well plate reader and no background was subtracted.

[9] = target: T5, Insulin-like Growth Factor 1 Receptor (IGF-1R) (UniProt P08069 31-1367, limits assumed); test: IGF-1R Cell ELISA: IGF-1R tyrosine phosphorylation after IGF-1, % of control. Indirect readout; the legend says that the antibody does not bind IGF-1R
T5 construct: also called IGF-IR

[10] = target: T1, c-Met ECD/Fc (R&D Systems #358 MT), …; test: Ligand Binding ELISA (competition): plate coated with c-Met ECD/Fc, antibody concentration varied, then HGF added and bound HGF detected; readout is % inhibition of HGF binding
Experimental: The wells were washed four times with Tris-buffered saline (pH=8.0) with 0.05% TWEEN-20 (TBS-T). Next, 200 μl/well of blocking buffer (3% bovine serum albumin (BSA) in TBS-T) was added for 60 minutes (min) at room temperature to block non-specific binding sites. The wells were washed 4 times with 300 μl/well TBS-T. Next, 100 μl of Dulbecco's Modified Eagle medium (DMEM) supplemented with 10% FBS containing anti-c-Met antibodies from hybridoma supernatants or purified antibodies in either PBS or 20 mM sodium acetate (pH=5.5), 140 mM NaCl at various concentrations (e.g., 10, 3, 1, 0.3, 0.1, 0.03, and 0.01 μg/ml, based on human IgG2 concentrations in the supernatants) was added to each well. Anti-c-Met antibody was not added to the control wells of the experiment. The samples were mixed for 4 hours (hrs) at room temperature. […] The samples were mixed for 15 minutes at room temperature. […] The solutions were incubated in the wells for 30 min at room temperature. […] The samples were incubated for 30 min at room temperature. The wells were washed 5 times with TBS-T, about 300 μl/well/wash. Next, 100 μl/well of 3,3′,5,5′-tetramethylbenzidine (TMB) peroxidase substrate (Kirkegaard & Perry Laboratories) was added and developed for 1-2 min at room temperature. […] The samples were read at a wavelength of 450 nanometers (nm) on a 96-well plate reader and no background was subtracted.

- koff [1]: 6.1e-05 s⁻¹
- Agonist Activity [maximum fold stimulation] [2]: 2.5 fold stimulation (maximum)
- Cellular Met Levels [% loss at 1.0 µg/ml] [2]: 11 % loss at 1.0 µg/ml
- Cellular pTyr Assay [IC50, µg/ml] [2]: 0.143 µg/ml
- Soft Agar Growth [IC50, µg/ml] [2]: 25 µg/mL
- Tubular Morphogenesis Agonism [fold stimulation at 50 µg/ml] [2]: 8.2 fold stimulation at 50 µg/ml
- Tubular Morphogenesis Antagonism [% inhibition at 1 µg/ml] [2]: 25 % inhibition at 1 µg/ml
- Kd [3]: 40.7 pM
- Kd [4]: 55.3 pM
- Kd [5]: 330 pM
- koff [6]: 6.5e-05 s⁻¹
- Kd [7]: 320 pM
- IC50 [8]: 0.115 µg/mL
B1: anti-c-Met monoclonal antibody 8.70.2 (antibody, V domains shown)
VH: QLQLQESGPGLVKPSETLSLTCTVSGGSISSSSYYGGWIRQPPGKGLDWIGSIYYSGNTYYNPSLKSRVTISVDTSKNQFSLKLSSVTAADTAVYYCARHSWDYFDYWDQGTLVTVSS
VL: DIQMTQSPSSVSASVGDRVTITCRASQGISSWLAWYQQKPGKAPKLLIYAASSLQSGVPSRFSGSGSGTDFTLTISSLQSEDFATYYCQQANSFPITFGPGTKVEIKR
notes: Human IgG2 kappa; also called hybridoma 8.70.2 (LN 15885); PTA-5028

- binding result [9]: no binding (tested: 1000 µg/ml)
- koff [1]: 0.00015 s⁻¹
- Agonist Activity [maximum fold stimulation] [2]: 2.7 fold stimulation (maximum)
- Cellular pTyr Assay [IC50, µg/ml] [2]: 0.033 µg/ml
- Soft Agar Growth [IC50, µg/ml] [2]: 8.5 µg/mL
- Kd [3]: 39.3 pM
- IC50 (read off the curve) [10]: ~0.03 µg/mL
- Kd [4]: 48.6 pM
- Kd [5]: 220 pM
- koff [6]: 0.00029 s⁻¹
- Kd [7]: 600 pM
- IC50 [8]: 0.09 µg/mL
B2: anti-c-Met monoclonal antibody 13.3.2 (antibody, human IgG2, kappa, V domains shown)
VH: QVQLVQSGAEVKKPGASVKVSCEASGYTFTSYGFSWVRQAPGQGLEWMGWISASNGNTYYAQKLQGRVTMTTDTSTSSAYMELRSLRSDDTAVYYCARVYADYADYWGQGTLVTVSS
VL: B1 VL with S30N, S31T, Q55K, T69A, S80P, I96L, P100G
notes: Human IgG2 kappa from XenoMouse hybridoma; The variable positions X2, X4, X6, X8 correspond to positions 42, 97, 14 (heavy) and 91 (light), where position one is the N-terminal amino acid; these numbers may not count on the entry with its leader; also called PTA-5026

- koff [1]: 0.00015 s⁻¹
- Agonist Activity [maximum fold stimulation] [2]: 2.3 fold stimulation (maximum)
- Cellular Met Levels [% loss at 1.0 µg/ml] [2]: 17.5 % loss at 1.0 µg/ml
- Cellular pTyr Assay [IC50, µg/ml] [2]: 0.086 µg/ml
- Soft Agar Growth [IC50, µg/ml] [2]: 10.5 µg/mL
- Tubular Morphogenesis Agonism [fold stimulation at 50 µg/ml] [2]: 2.5 fold stimulation at 50 µg/ml
- Tubular Morphogenesis Antagonism [% inhibition at 1 µg/ml] [2]: 61 % inhibition at 1 µg/ml
- Kd [3]: 26 pM
- Kd [4]: 393 pM
- Kd [5]: 530 pM
- koff [6]: 0.00025 s⁻¹
- Kd [7]: 1220 pM
- IC50 [8]: 0.11 µg/mL
B3: anti-c-Met monoclonal antibody 8.90.3 (antibody, V domains shown)
VH: EVQLVESGGGLVQPGGSLRLSCAASGFTFSRYSMNWVRQAPGKGLEWVSYISSRSSTIYYADSVKGRFTMSRDNAKNSLYMQMNSLRDEDTAVYYCGYGDYDYFDYWGQGTLVTVSS
VL: B1 VL with T20I, Q55K, L73V, S80P, A91S, F94L, I96W, P100Q
notes: Human IgG2 kappa

- koff [1]: 0.00018 s⁻¹
- Agonist Activity [maximum fold stimulation] [2]: 2.5 fold stimulation (maximum)
- Cellular Met Levels [% loss at 1.0 µg/ml] [2]: 28.5 % loss at 1.0 µg/ml
- Cellular pTyr Assay [IC50, µg/ml] [2]: 0.032 µg/ml
- Kd [3]: 56 pM
- IC50 (read off the curve) [10]: ~0.05 µg/mL
- Kd [4]: 73.3 pM
- Kd [5]: 200 pM
- koff [6]: 0.0004 s⁻¹
- Kd [7]: 610 pM
- IC50 [8]: 0.127 µg/mL
B4: anti-c-Met monoclonal antibody 13.3.2L-A91T, H-E42K, S97T (antibody, human IgG2, kappa, V domains shown)
VH: B2 VH with E23K, S78T
VL: B1 VL with S30N, S31T, Q55K, S80P, I96L, P100G
notes: positions 42, 97, 14 and 91 count from the N-terminal amino acid and may not count on the entry with its leader

- binding result [9]: no binding (tested: 1000 µg/ml)
- koff [1]: 6.8e-05 s⁻¹
- Agonist Activity [maximum fold stimulation] [2]: 6.5 fold stimulation (maximum)
- Cellular Met Levels [% loss at 1.0 µg/ml] [2]: 46.9 % loss at 1.0 µg/ml
- Cellular pTyr Assay [IC50, µg/ml] [2]: 0.033 µg/ml
- Soft Agar Growth [IC50, µg/ml] [2]: 5.5 µg/mL
- Tubular Morphogenesis Agonism [fold stimulation at 50 µg/ml] [2]: 2.2 fold stimulation at 50 µg/ml
- Tubular Morphogenesis Antagonism [% inhibition at 1 µg/ml] [2]: 84 % inhibition at 1 µg/ml
- Kd [3]: 169 pM
- Kd [4]: 168 pM
- Kd [5]: 820 pM
- koff [6]: 9.8e-05 s⁻¹
- Kd [7]: 1100 pM
- IC50 [8]: 0.093 µg/mL
B5: anti-c-Met monoclonal antibody 9.1.2 (antibody, V domains shown)
VH: QVQLQESGPGLVKPSQTLSLTCTVSGGSISSGGYYWSWIRQHPGKGLEWIGYIYYSGSTYYNPSLKSRVTISVDTSKNQFSLKLSSVTAADTAVYYCARDGPLGYCSSTSCPVTGEYYYYGMDVWGQGTTVTVSS
VL: EIVLTQSPGTLSLSPGERATLSCRASQSVSNNYLAWYQQKPGQAPRLLIFGASSRATGIPDRFSGSGSGTDFTLTISRLEPEDFAVYYCQQYDISPMYSFGQGTKLEMKR
notes: Human IgG2 kappa; also called hybridoma 9.1.2 (LN 15884); PTA-5027
